Assay [1] deals with SnoopCatcher (Streptococcus pneumoniae). Kind of assay: time-course of isopeptide bond formation, SDS-PAGE densitometry, 1:1 ratio.
Assay [2] shares this target. Put plainly: time-course of isopeptide bond formation, SDS-PAGE densitometry, excess of SnoopTag-MBP.

For the substance SnoopTag-MBP, the reaction yield in assay [1] was found to be 80%. The percent of SnoopCatcher consumed in assay [2] amounted to 100%.

These data come from patent US20180244730A1.
